Laboratory results from the supplement of paper PMC10567573.
± gives the standard deviation.

Test: protein stability index of a GFP-peptide fusion (GPS, HEK-293T) (PSI 1-6); higher = more stable
[1] = treatment: DMSO, c terminus: a fixed tail appended
[2] = treatment: MLN4924 1 uM, 8 h, c terminus: a fixed tail appended
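Also: 24-mer peptide tiles fused after GFP, lentivirally expressed, FACS-sorted into six equal bins by GFP/DsRed ratio, decoded by Illumina sequencing, PSI is the read-weighted mean bin number.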

Sequence	protein stability index [1]	protein stability index [2]	protein stability index (treatment: DMSO, c terminus: native)	protein stability index (treatment: MLN4924 1 uM, 8 h, c terminus: native)
EEERDEEEDKRRKGEEVTPISAIR [EPB41L3]	5.59 ± 0.28	5.66 ± 0.21	–	–
EEPENGEPTAAATARRSKRERREE [PWWP2B]	5.63 ± 0.29	5.8 ± 0.14	–	–
EERALLLGRMGKHEQALFIYVHIL [VPS39]	2.96 ± 0.41	2.68 ± 0.51	–	–
EETVTMLEDVERELDGPKQIFFGR [ZNF396]	4.5 ± 0.14	4.49 ± 0.26	–	–
EEVSTLNAQIPELKSDLEKASALN [CD207]	5.08 ± 0.19	5.24 ± 0.17	–	–
EEYSQIIYSTKLYRFFKYIENRDV [BTBD10]	1.64 ± 0.19	1.87 ± 0.4	–	–
EFDSPHEDIVFETDHILESLYRDI [STX11]	3.59 ± 0.38	3.58 ± 0.25	–	–
EFSIDNYPTDNTKVMIFKSSYSLS [MIA2]	2.75 ± 0.64	2.48 ± 0.3	–	–
EFVTLKAIALANSDSMHIEDVEAV [ESRRG]	3.39 ± 0.38	3.31 ± 0.29	–	–
EGHHHDVVACDFSPDGALLATASY [WSB1]	3.9 ± 0.23	4.03 ± 0.18	–	–
EGMDFHRFYFENLLAKNSKPIHTT [CAMK2B]	2.52 ± 0.36	2.49 ± 0.31	–	–
EGPGEQETKLDLISKGEEPRAGKE [SLC29A1]	5.68 ± 0.21	5.43 ± 0.21	–	–
EGRKKAFSTCGSHLTVVAIFYGSG [OR3A1]	2.77 ± 0.4	3.15 ± 0.38	–	–
EGSSQEDEDLGLSEGSSQDSGED [SPANXN3]	–	–	5.55 ± 0.24	5.56 ± 0.19
EGYAHLTHLLMGLASGRIILILEG [HDAC6]	2.91 ± 0.56	3.09 ± 0.041	–	–
EGYTWRVAQLEDRRSTTDLRGTQF [ZSWIM9]	3.37 ± 0.55	3.28 ± 0.24	–	–
EHDFLDRDAIEALCRRLNTLNKCA [DLC1]	2.73 ± 0.36	2.73 ± 0.49	–	–
EIERAIKQTQCPADPLQLNKALSI [FEM1C]	3.42 ± 0.44	3.28 ± 0.16	–	–
EKGILTTEKQNFLLFDMTTHPVTN [GOLPH3L]	3.69 ± 0.32	3.61 ± 0.27	–	–
EKKLFECLTCGKSFRQGMHLTRHQ [ZNF263]	2.1 ± 0.41	2.27 ± 0.19	–	–
EKTFWKEEKSFWEMEKSFREEEKT [CCDC70]	4.62 ± 0.23	4.82 ± 0.26	–	–
EKYGAVREVILKELAEATWCGIST [ZBED1]	2.97 ± 0.36	2.68 ± 0.35	–	–

Sequence	protein stability index [1]	protein stability index [2]	protein stability index (treatment: DMSO, c terminus: native)	protein stability index (treatment: MLN4924 1 uM, 8 h, c terminus: native)
ELMKCQIIYPRQQLLTLRELEMIG [TRIP13]	2.33 ± 0.47	2.02 ± 0.53	–	–
ELNKKMTNIRLPNVPSSSLPAQPN [CHMP4C]	3.66 ± 0.4	3.63 ± 0.18	–	–
ELNKQVVSSSEQLQSYQAEIIELR [KRT33B]	3.76 ± 0.3	3.99 ± 0.34	–	–
ELRPRRGRCGPQAARAAGRDVAAE [POMT2]	3.58 ± 0.37	3.67 ± 0.086	–	–
ELVSVEDLLKFEKKFQSEKAAGSV [FIS1]	3.58 ± 0.3	4.07 ± 0.35	–	–
EMEVMRRQLYAVNRRLRALEEQGA [FATE1]	3.65 ± 0.29	3.68 ± 0.41	–	–
ENHSMYCVQCKMPVCYQCLEEGKH [TRIM9]	4.07 ± 0.2	4.36 ± 0.41	–	–
EPSSPASLTDSVNHHSPGGSSDAS [ESRRG]	5.47 ± 0.15	5.51 ± 0.15	–	–
EQLLDVKLALDMEISAYRKLLQGE [LMNB1]	3.02 ± 0.45	3.13 ± 0.55	–	–
ERCLSCILAQQPDRLRDEELAELE [TRADD]	4.41 ± 0.39	4.19 ± 0.51	–	–
ERPERRSGPPASYCAKLCEPQWFY [C8orf76]	2.46 ± 0.26	2.54 ± 0.32	–	–
ERYMCSRFFIDFPHIEEQQKKIES [TENT5D]	3.21 ± 0.3	3.23 ± 0.16	–	–
ESGKSTIVKQMKIIHEAGYSEEEC [GNAI1]	5.16 ± 0.18	4.85 ± 0.13	–	–
ESILMSLPLTARWEYMHSPSENSK [CPOX]	3.45 ± 0.57	3.93 ± 0.33	–	–
ESLRPLVQTPPGGSEVVPVISPMY [IKZF1]	–	3.72 ± 0.71	–	–
ETALYRKMLGNPSRLPAKCPGKGA [FKBP8]	3.61 ± 0.31	3.62 ± 0.3	–	–
ETDVWFSKQRKDFEGMAFLETEQG [GMCL1]	4.12 ± 0.62	4.45 ± 0.16	–	–
ETLSGDRVRLDSELRNVQDVVEDY [KRT71]	5.16 ± 0.19	5.36 ± 0.18	–	–
ETYMSADDLRINLWHLAITDRSFN [PPP2R2C]	2.23 ± 0.32	2.36 ± 0.29	–	–
EVLLASLANPVLESTPVGTVVGLF [PCDHGC5]	2.53 ± 0.51	2.33 ± 0.43	–	–
EVNVLNDMRDTPLHRAAFTGRKIC [OSBPL1A]	3.19 ± 0.089	3.26 ± 0.31	–	–
EVSHPFLIRLFWTWHDERFLYMLM [PRKX]	2.24 ± 0.55	2.14 ± 0.19	–	–

Sequence	protein stability index [1]	protein stability index [2]	protein stability index (treatment: DMSO, c terminus: native)	protein stability index (treatment: MLN4924 1 uM, 8 h, c terminus: native)
FARFCKSQESALGNTVPAVEPGTP [DNAAF3]	3.63 ± 0.25	3.58 ± 0.21	–	–
FDFERSGLQHAPEPDAADGPYDPN [SMAD6]	5.37 ± 0.29	5.5 ± 0.41	–	–
FDVHPPLGKMLIGLAGYLSGYDGT [POMT2]	2.18 ± 0.19	2.17 ± 0.13	–	–
FETQMKTLAQFPETLLGDPEKRTQ [KCNA4]	4.79 ± 0.16	4.84 ± 0.21	–	–
FFHCYCPVGFGRRTDPNGDYIRRY [CRY1]	2.4 ± 0.048	2.34 ± 0.42	–	–
FFLKHPDKDVRLLVACCLADIFRI [PDS5B]	2.95 ± 0.81	2.75 ± 0.17	–	–
FFTVEFGLCKQDGQLRVFGAGLLS [TPH1]	2.73 ± 0.57	3.09 ± 1.2	–	–
FGFAQILIPGDAYTDYVATRWYRA [CDKL4]	2.31 ± 0.58	2.84 ± 0.76	–	–
FGLAIEVEGEQQAWFGFAGTPGYL [CAMK2A]	2.68 ± 0.92	2.92 ± 0.65	–	–
FIDKEDLKDTYASLGKTNVKDDEL [MYL5]	4.8 ± 0.15	4.92 ± 0.19	–	–
FIMDSCDELIPEYLNFIRGVVDSE [HSP90AB1]	2.37 ± 0.13	2.32 ± 0.32	–	–
FKSFQYPLPWSECPVVRNGSVAVV [SLC6A17]	2.07 ± 0.29	2.09 ± 0.56	–	–
FLKKSQLTEHKRIHTGKKPHVCSL [ZNF649]	2.76 ± 0.36	2.75 ± 0.36	–	–
FLLKFLLVGDSDVGKGEILASLQD [RAB40B]	3.52 ± 0.49	1.86 ± 0.28	–	–
FLQVLEPGARGLWKPPDIKGKLMV [SPAG8]	2.38 ± 0.34	2.26 ± 0.32	–	–
FLQYYYQSGCLYRLRALGERHTMD [TMEM120A]	2.46 ± 0.47	2.35 ± 0.38	–	–
FLSLACARGSIVATYIFIFIGETL [SPNS1]	2.72 ± 0.2	2.92 ± 0.71	–	–
FMPAMQFSIPPWRYDAEVVAIAQK [MYORG]	2.33 ± 0.22	2.52 ± 0.18	–	–
FPAVTVEVKSSIAGSSTWERYFIP [SLC29A1]	2.61 ± 0.88	2.4 ± 0.28	–	–
FPRDAVQIEEVFISEEIQMSTKES [MIA2]	4.56 ± 0.17	4.5 ± 0.2	–	–
FQMVLEGGVCCTVTLNFNVPGEFK [GFOD1]	3.1 ± 0.41	3.14 ± 0.31	–	–
